The chains are these.
B1: PABP-interacting protein 2A (Paip2A), full length (natural protein, human, UniProt Q9BPZ3 1-127, looked up)
chain: MKDPSRSSTSPSIINEDVIINGHSHEDDNPFAEYMWMENEEEFNRQIEEELWEEEFIERCFQEMLEEEEEHEWFIPARDLPQTMDQIQDQFNDLVISDGSSLEDLVVKSNLNPNAKEFVPGVKYGNI
B2: PABPC1 RRM2 including the RRM2-3 linker (residues 100-190) (domain or fragment)
chain: not shown
B3: PABPC1 RRM2/3 (residues 100-289) (domain or fragment, human)
chain: GPLGSNIFIKNLDKSIDNKALYDTFSAFGNILSCKVVCDENGSKGYGFVHFETQEAAERAIEKMNGMLLNDRKVFVGRFKSRKEREAELGARAKEFTNVYIKNFGEDMDDERLKDLFGKFGPALSVKVMTDESGKSKGFGFVSFERHEDAQKAVDEMNGKELNGKQIYVGRAQKKVERQTELKRKFEQMKQDRIT
B4: PABPC1 RRM3 including the RRM3-4 linker (residues 191-289) (domain or fragment, human, UniProt P11940 191-289, looked up)
chain: TNVYIKNFGEDMDDERLKDLFGKFGPALSVKVMTDESGKSKGFGFVSFERHEDAQKAVDEMNGKELNGKQIYVGRAQKKVERQTELKRKFEQMKQDRIT
B5: Paip2A(25-83) (residues 25-83 of PABP-interacting protein 2A) (domain or fragment, human, UniProt Q9BPZ3 25-83, looked up)
chain: HEDDNPFAEYMWMENEEEFNRQIEEELWEEEFIERCFQEMLEEEEEHEWFIPARDLPQT

Experiment [1] has as its target poly(A)-binding protein C1 (PABPC1), full length (human, UniProt P11940 1-636). As to the kind of experiment: SPR.
In experiment [2] the target is PABPC1 RRM1/2/3/4 (residues 1-370) (human, UniProt P11940 1-370). Nature of the experiment: SPR. For orientation: In SPR one partner is held on a chip, and binding of the other changes the refractive index at the surface.
For experiment [3], the target named is B3. Nature of the experiment: NMR titration.
In experiment [4] the target is B5. As to the kind of experiment: ITC. On the technique in general: In ITC the heat of successive injections is recorded.
The target of experiment [5] is B4. As to the kind of experiment: ITC.
Experiment [6] concerns the target B3. Nature of the experiment: ITC.
Experiment [7] addresses B2. As to the kind of experiment: ITC.

On to B1, for which the binding result in experiment [1], in experiment [2] and in experiment [3] was “binds” each time.

One may read the stoichiometry N as a count of units in the complex or per binding partner. As to B2, in experiment [4], the dH was -28.7 kcal/mol and the “stoichiometry N” value was found to be 0.87.

In the case of B3, in experiment [4], the dH was -55 kcal/mol and the “stoichiometry N” value came to 0.83.

With B4, in experiment [4], the dH was -43 kcal/mol and the “stoichiometry N” value stood at 0.87.

As usually defined, the Kd is the free concentration of one partner at which half of the binding sites on the other are occupied at equilibrium, for simple one-to-one binding. A high value points to weaker binding. Regarding B5, the Kd was 1300 nM in experiment [5], 1.9 nM in experiment [6] and 4000 nM in experiment [7].

The record behind these values is publication PMC9019252 (The Journal of Biological Chemistry, 2022).
